The values below come from patent US20140113288, “METHODS OF IDENTIFYING RISK OF PREECLAMPSIA AND PREGNANCY-RELATED DISORDERS” (Academia Sinica, published 2014).

For data set [1], the target named is T1, GCM1 (GCMa) (Homo sapiens, UniProt Q9NP62 Q9NP62:1-436).
T1 sequence: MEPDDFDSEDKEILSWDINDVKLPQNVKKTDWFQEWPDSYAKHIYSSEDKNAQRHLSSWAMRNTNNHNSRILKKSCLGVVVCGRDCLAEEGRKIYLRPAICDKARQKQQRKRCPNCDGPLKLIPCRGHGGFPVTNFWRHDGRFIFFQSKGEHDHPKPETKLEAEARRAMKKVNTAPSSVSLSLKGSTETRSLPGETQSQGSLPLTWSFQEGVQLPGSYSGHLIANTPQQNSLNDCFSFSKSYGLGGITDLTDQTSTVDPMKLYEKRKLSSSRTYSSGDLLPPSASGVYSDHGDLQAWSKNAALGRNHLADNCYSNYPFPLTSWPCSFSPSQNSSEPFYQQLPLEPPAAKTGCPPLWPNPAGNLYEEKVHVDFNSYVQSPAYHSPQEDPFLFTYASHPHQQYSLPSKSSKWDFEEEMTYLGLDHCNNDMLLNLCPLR
Put plainly: EMSA; supershifted by anti-GCM1 antibody; 5% non-denaturing gel. The following applies: tags: C-terminal FLAG (GCM1-FLAG); label: radiolabel. The method, then: (§1) BeWo cells stably expressing HA-GCM1 (BeWo31) (36) were treated with or without 50 μM forskolin for 24 hours before being subjected to ChIP assay using normal mouse serum or HA mAb (Sigma, St. Louis, Mo.). The immunopurified genomic fragments were amplified by ligation-mediated PCR and the resulting amplicons were fragmented and labeled with terminal labeling kit (Affymetrix, Santa Clara, Calif.) according to the manufacturer's instructions. The chips of Human promoter 1.0R array (Affymetrix) were hybridized with the labeled amplicons, followed by data analysis using the Partek software package (St. Louis, Mo.). Furthermore, RefSeq mapping data were collected from the UCSC Genome Browser's RefFlat table (The UCSC genome browser database: update 2007). The closest RefSeq 5′ end for each ChIP region was identified, regardless of whether the cluster was upstream or downstream of the 5′ end. The primer sequences for ChIP analysis of the interaction between GCM1 and HtrA4-GBS in BeWo cells are 5′-[…]-3′ (SEQ ID NO:4) and 5′-GTCTCTAGCC CTACCCG-3′ (SEQ ID NO:5). On the other hand, analysis of direct interaction between GCM1 and HtrA4-GBS was performed by electrophoretic mobility shift assay (EMSA) as previously described (22). […] The reaction mixtures were analyzed by electrophoresis on 5% non-denaturing polyacrylamide gels. […]
In general terms: Mobility shift assays separate free from complexed probe on a gel.

Data set [2] has as its target T1, GCM1 (GCMa). Put plainly: EMSA; GBS mutated. The following applies: tags: C-terminal FLAG (GCM1-FLAG); label: radiolabel. The method, then: as §1

B1: HtrA4-GBS probe (dsDNA)
DNA 1: GTGAGCTTTCTTATCAGTCTGCCCTCATTGTCGGTTTT
DNA 2: AAAACCGACAATGAGGGCAGACTGATAAGAAAGCTCAC
Consider B1, for which the binding result in the data set with GCM1 (GCMa) [1] is given as “binds”.

B2: HtrA4-GBSmt probe (dsDNA)
DNA 1: GTGAGCTTTCTTATCAGTCTGAACTACTTGTCGGTTTT
DNA 2: AAAACCGACAAGTAGTTCAGACTGATAAGAAAGCTCAC
For the molecule B2, the binding result in the data set with GCM1 (GCMa) [2] is “no binding”.
